In patent publication US20250075006A1 (SHANDONG SIMCERE BIOPHARMACEUTICAL, published 2025):

T1: Cyno GUCY2C ECD (his-tagged cynomolgus monkey GUCY2C protein extracellular domain fusion protein) (cynomolgus monkey, UniProt P25092 24-430 (human entry))
T1 construct: also called monkey GUCY2C-his; monkey GUCY2C-His
T1 chain: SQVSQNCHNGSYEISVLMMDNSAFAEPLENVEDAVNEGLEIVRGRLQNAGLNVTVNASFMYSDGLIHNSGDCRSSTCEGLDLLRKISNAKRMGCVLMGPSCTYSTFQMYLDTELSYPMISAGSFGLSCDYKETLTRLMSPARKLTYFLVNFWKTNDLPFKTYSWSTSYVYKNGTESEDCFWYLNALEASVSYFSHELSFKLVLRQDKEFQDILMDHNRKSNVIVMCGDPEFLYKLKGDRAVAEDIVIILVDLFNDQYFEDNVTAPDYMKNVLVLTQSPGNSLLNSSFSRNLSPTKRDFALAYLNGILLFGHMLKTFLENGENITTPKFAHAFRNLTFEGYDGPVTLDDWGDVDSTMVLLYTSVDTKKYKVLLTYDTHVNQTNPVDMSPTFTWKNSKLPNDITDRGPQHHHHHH


Key:
[1] = molecular target: T2, Human GUCY2C ECD (his-tagged human GUCY2C protein extracellular domain fusion protein) (human, UniProt P25092 24-430); assay: SPR Biacore, antibody on Protein A, antigen injected
T2 construct: also called human GUCY2C-his; human GUCY2C-His
Protocol: The strength of antibody-antigen binding was assayed with a BIAcore 8K instrument using a Protein A capture method. First, Protein A was immobilized onto a CM4 chip (purchased from GE, BR-1005-34) using an amino coupling method. According to the instruction of the Amine Coupling Kit (purchased from GE, BR100633), NHS and EDC were mixed with HBS-EP+pH 7.4 as a mobile phase to activate the chip for about 600 s; the Protein A was diluted to 50 μg/mL with 10 mM sodium acetate (pH 4.5) and injected for 600 s, and finally, the remaining activated sites were blocked with ethanolamine. Then, the affinity of the antibody for the antigen was assayed using a multi-cycle kinetic method; in each cycle, first, the antibody to be tested was captured using the Protein A chip, and then a single concentration of antigen protein was injected. The association and dissociation processes of the antibody with the antigen protein were recorded, and finally, the chip was regenerated using Glycine pH 1.5, wherein the mobile phase was HBS-EP+(10 mM HEPES, 150 mM NaCl, 3 mM EDTA, 0.05% surfactant P20), the flow rate was 30 μL/min, the regeneration time was 30 s, and the assay temperature was 25° C. Finally, according to a 1:1 binding model, the data were analyzed, and the antibody-antigen binding kinetics parameters, including the association rate constant Ka, the dissociation rate constant Kd, the equilibrium dissociation constant KD, and the maximum binding signal Rmax, were fitted.
The association rate (Ka), dissociation rate (Kd), and binding affinity (KD) of the recombinant antibodies Lab306-huFc, Lab322-huFc, and Lab323-huFc with the human GUCY2C protein are shown in Table 5. The positive control antibody has good binding activity at the protein level, but has very weak binding at the cellular level. Lab322-huFc and Lab323-huFc, although weak in affinity, bind well to the cellular level, presumably due to differences in the conformation of the proteins and proteins at the viable cellular level.

[2] = molecular target: T2, Human GUCY2C ECD (his-tagged human …); assay: ELISA, plate coated with human GUCY2C-his, OD450
Protocol: A human GUCY2C-his protein was diluted with PBS to a final concentration of 2 μg/mL and then added to a 96-well ELISA plate at 50 μL/well. The plate was sealed with a plastic film and incubated at 4° C. overnight. The next day, the plate was washed 2 times with PBST, and a blocking buffer [PBS+2% (w/w) BSA] was added for blocking at room temperature for 2 h. The blocking buffer was discarded, and the recombinant antibody and positive and negative control antibody with a starting concentration of 100 nM serially diluted by 3 folds were added at 50 μL/well. After incubation at 37° C. for 1 h, the plate was washed 3 times with PBST. A horseradish peroxidase (HRP)—labeled secondary antibody (purchased from Merck, Cat. No. AP113P) was added for incubation at 37° C. for 1 h, and the plate was washed 5 times with PBST. A TMB substrate was added at 50 μL/well for incubation at room temperature for 10 min, and then a stop solution (1.0 M HCl) was added at 50 μL/well. The OD450 nm values were read by an ELISA plate reader (Multimode Plate Reader, EnSight, purchased from Perkin Elmer).

[3] = molecular target: T1, Cyno GUCY2C ECD (his-tagged cynomolgus …); assay: ELISA, plate coated with monkey GUCY2C-his, OD450
[4] = molecular target: T2, Human GUCY2C ECD (his-tagged human …); assay: BLI Gator, antibody on anti-human Fc probe, antigen in solution
Protocol: (§1) Next, we measured the affinity of the recombinant antibody by another method, and the specific procedures were as follows: the binding strength of the antibody to the antigen was assayed by acquiring and analyzing the signal change of the reflection interference spectrum on the surface of the optical probe by using thin film interference technology. First, the probe was equilibrated for 300 s with HBS-T+pH 7.4 (0.02% tween) as the mobile phase. 2 μg/mL of the antibody to be tested was captured by an anti-human FC probe (purchased from ProbeLife, PL168-160003) for 240 s, and then antigen proteins with the concentration of 200 nM and diluted two-fold were injected. Kon for 300 s and Koff for 600 s. The association and dissociation processes of the antibody with the antigen protein were recorded, and finally, the chip was regenerated using Glycine pH 2.0 (purchased from GE), wherein the mobile phase was HBS-T+pH 7.4 (0.02% tween), the regeneration time was 5 s, and the assay temperature was 30° C. Finally, according to a 1:1 binding model, the data were analyzed, and the antibody-antigen binding kinetics parameters, including the association rate constant Ka, the dissociation rate constant Kd, the equilibrium dissociation constant KD, and the maximum binding signal Rmax, were fitted. The association rate (Ka), dissociation rate (Kd), and binding affinity (KD) of the recombinant antibodies with the human GUCY2C and monkey GUCY2C proteins are shown in Table 6.
(§2) After the finally obtained various humanized antibodies were expressed and purified, the affinities of the humanized antibodies for the human and monkey GUCY2C proteins were separately assayed according to the method in Example 4.6.

[5] = molecular target: T1, Cyno GUCY2C ECD (his-tagged cynomolgus …); assay: as above
Protocol: as §1, §2

T2 sequence (P25092 other isoform, or with tags, fused parts or gaps): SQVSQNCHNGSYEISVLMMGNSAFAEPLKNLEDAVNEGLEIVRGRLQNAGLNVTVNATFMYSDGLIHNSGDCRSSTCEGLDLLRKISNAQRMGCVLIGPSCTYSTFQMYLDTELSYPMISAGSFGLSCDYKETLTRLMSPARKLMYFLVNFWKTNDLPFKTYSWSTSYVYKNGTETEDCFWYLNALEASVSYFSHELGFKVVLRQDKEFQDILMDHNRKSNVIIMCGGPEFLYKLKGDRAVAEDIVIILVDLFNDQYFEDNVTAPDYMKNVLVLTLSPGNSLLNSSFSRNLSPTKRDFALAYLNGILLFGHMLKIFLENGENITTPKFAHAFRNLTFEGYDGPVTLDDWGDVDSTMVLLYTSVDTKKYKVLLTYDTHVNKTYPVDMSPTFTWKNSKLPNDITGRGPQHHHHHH

| Kd [1] [pM] | koff [1] [s⁻¹] | kon [1] [M⁻¹ s⁻¹] | EC50 (read off the curve) [2] [pM] | EC50 (read off the curve) [3] [pM] | Kd [4] [pM] | koff [4] [s⁻¹] | kon [4] [M⁻¹ s⁻¹] | Kd [5] [pM] | koff [5] [s⁻¹] | kon [5] [M⁻¹ s⁻¹] | Binder |
| --- | --- | --- | --- | --- | --- | --- | --- | --- | --- | --- | --- |
| 1610 | 0.000235 | 146000 | ~90 | ~60 | 494 | 0.000197 | 400000 | 256 | 0.000138 | 540000 | PF1608-hIgG1 (antibody, V domains shown, also called PF1608-hlgG1; positive control antibody) VH: EVQLVESGGGLVQPGGSLRLSCAASGFTFSSYWMHWVRQAPGKGLEWIGEIKPSNELTNVHEKFKDRFTISVDKAKNSAYLQMNSLRAEDTAVYYCTRTITTTEGYWFFDVWGQGTLVTVSS VL: DIQLTQSPSSLSASVGDRVTITCRASESVDYYGSSLLQWYQQKPGKAPKLLIYAASKLASGVPSRFSGSGSGTDFTLTISSLQPEDFATYYCQQTRKAYTFGQGTKLEIKR |
| 2190 | 0.00028 | 128000 | ~50 | ~40 | 1140 | 0.000448 | 391000 | 998 | 0.000486 | 487000 | 5F9-hIgG1 (antibody, V domains shown, also called positive control antibody) VH: QVQLQQWGAGLLKPSETLSLTCAVFGGSFSGYYWSWIRQPPGKGLEWIGEINHRGNTNDNPSLKSRVTISVDTSKNQFALKLSSVTAADTAVYYCARERGYTYGNFDHWGQGTLVTVSS VL: EIVMTQSPATLSVSPGERATLSCRASQSVSRNLAWYQQKPGQAPRLLIYGASTRATGIPARFSGSGSGTEFTLTIGSLQSEDFAVYYCQQYKTWPRTFGQGTNVEIKR |
